Data set [1] deals with C.Csp231I controller protein (Citrobacter sp. RFL231). In words: crystal structure; C.Csp231I in complex with 21 bp OL or OR operator DNA duplexes; three crystal forms (P6(1) OL 2.30 Å, C2 OL 2.75 Å, P6(1) OR 1.80 Å); subunits within one protein dimer.
The target in data set [2] is T1, C.Csp231I (Citrobacter sp. RFL231, UniProt Q32WH4 1-98).
T1 sequence: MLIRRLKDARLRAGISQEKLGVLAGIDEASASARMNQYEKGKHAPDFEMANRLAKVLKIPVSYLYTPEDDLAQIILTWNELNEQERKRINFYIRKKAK
Description: crystal structure; C2 form, 2.75 A, two complexes per asymmetric unit; EMSA: 10 mM Tris-HCl pH 8.0, 0.1 M NaCl, 1 mM EDTA, room temperature 30 min, 2 uM DNA, 6.5% native PAGE in 0.25x TBE; AUC: same buffer, 20 C. The conditions noted are these: protein: recombinant; chain copies: 2. In general terms: In EMSA bound probe runs differently from free probe, usually more slowly.

The target of data set [3] is T1, C.Csp231I. Description: EMSA; single complex up to 2:1 subunits per duplex; 2 uM DNA; EMSA: 10 mM Tris-HCl pH 8.0, 0.1 M NaCl, 1 mM EDTA, room temperature 30 min, 2 uM DNA, 6.5% native PAGE in 0.25x TBE; AUC: same buffer, 20 C. The note with it: protein: recombinant; chain copies: 2.
Data set [4] has as its target T2, C.Csp231I (two dimers) (Citrobacter sp. RFL231, UniProt Q32WH4 1-98).
T2 sequence: T1 sequence
In words: EMSA; larger complex at 4:1 and above; 2 uM DNA; EMSA: 10 mM Tris-HCl pH 8.0, 0.1 M NaCl, 1 mM EDTA, room temperature 30 min, 2 uM DNA, 6.5% native PAGE in 0.25x TBE; AUC: same buffer, 20 C. The note with it: protein: recombinant; chain copies: 4.

In data set [5] the target is T1, C.Csp231I. Description: EMSA; one dimer binds; 2 uM DNA; EMSA: 10 mM Tris-HCl pH 8.0, 0.1 M NaCl, 1 mM EDTA, room temperature 30 min, 2 uM DNA, 6.5% native PAGE in 0.25x TBE; AUC: same buffer, 20 C. The note with it: protein: recombinant; chain copies: 2.
The target in data set [6] is T2, C.Csp231I (two dimers). Description: EMSA; little effect of spacer mutation; 2 uM DNA; EMSA: 10 mM Tris-HCl pH 8.0, 0.1 M NaCl, 1 mM EDTA, room temperature 30 min, 2 uM DNA, 6.5% native PAGE in 0.25x TBE; AUC: same buffer, 20 C. The note with it: protein: recombinant; chain copies: 4.
Data set [7] has as its target T1, C.Csp231I. In words: EMSA; single dimer at the OL site; 2 uM DNA; EMSA: 10 mM Tris-HCl pH 8.0, 0.1 M NaCl, 1 mM EDTA, room temperature 30 min, 2 uM DNA, 6.5% native PAGE in 0.25x TBE; AUC: same buffer, 20 C. The note with it: protein: recombinant; chain copies: 2.

Consider “C.Csp231I controller protein (natural protein)”, for which, in data set [1], the stoichiometry N (in general, the number of molecules, sites or subunits per partner or assembly) came out at 2.

B1: OL 21-mer (dsDNA)
DNA 1: ACACTAAGGAAAACTTAGTAA
DNA 2: TTACTAAGTTTTCCTTAGTGT
On to B1, for which the binding result with C.Csp231I [2] is reported as “binds”.

B2: 54-1 (native OL+OR) (dsDNA)
DNA 1: ACACTAAGGAAAACTTAGTAAAATTGCTTTTTTAAACTAAGAAAATCTTAGCAA
DNA 2: TTGCTAAGATTTTCTTAGTTTAAAAAAGCAATTTTACTAAGTTTTCCTTAGTGT
For B2, the binding result with C.Csp231I [3] and with C.Csp231I (two dimers) [4] was “binds” each time.

B3: 48-1 (6 bp spacer deletion) (dsDNA)
DNA 1: ACACTAAGGAAAACTTAGTAAAATTTTAAACTAAGAAAATCTTAGCAA
DNA 2: TTGCTAAGATTTTCTTAGTTTAAAATTTTACTAAGTTTTCCTTAGTGT
As to B3, the binding result with C.Csp231I [5] is given as “binds”.

B4: 54-3 (spacer randomized) (dsDNA)
DNA 1: ACACTAAGGAAAACTTAGTAACTGCATGCTACCAAACTAAGAAAATCTTAGCAA
DNA 2: TTGCTAAGATTTTCTTAGTTTGGTAGCATGCAGTTACTAAGTTTTCCTTAGTGT
Take B4: the binding result with C.Csp231I (two dimers) [6] was “binds”.

B5: 54-2 (OR randomized) (dsDNA)
DNA 1: ACACTAAGGAAAACTTAGTAAAATTGCTTTTTTAAATAAGACTCGTTAAAAAAC
DNA 2: GTTTTTTAACGAGTCTTATTTAAAAAAGCAATTTTACTAAGTTTTCCTTAGTGT
Take B5: the binding result in the data set with C.Csp231I [7] was “binds”.

The values above are taken from PMC4321490, “Structural analysis of DNA binding by C.Csp231I, a member of a novel class of R-M controller proteins regulating gene expression”.
